B1: Jouberin (Homo sapiens), Q8N157 (parent)
chain: MPTAESEAKVKTKVRFEELLKTHSDLMREKKKLKKKLVRSEENISPDTIRSNLHYMKETTSDDPDTIRSNLPHIKETTSDDVSAANTNNLKKSTRVTKNKLRNTQLATENPNGDASVEEDKQGKPNKKVIKTVPQLTTQDLKPETPENKVDSTHQKTHTKPQPGVDHQKSEKANEGREETDLEEDEELMQAYQCHVTEEMAKEIKRKIRKKLKEQLTYFPSDTLFHDDKLSSEKRKKKKEVPVFSKAETSTLTISGDTVEGEQKKESSVRSVSSDSHQDDEISSMEQSTEDSMQDDTKPKPKKTKKKTKAVADNNEDVDGDGVHEITSRDSPVYPKCLLDDDLVLGVYIHRTDRLKSDFMISHPMVKIHVVDEHTGQYVKKDDSGRPVSSYYEKENVDYILPIMTQPYDFKQLKSRLPEWEEQIVFNENFPYLLRGSDESPKVILFFEILDFLSVDEIKNNSEVQNQECGFRKIAWAFLKLLGANGNANINSKLRLQLYYPPTKPRSPLSVVEAFEWWSKCPRNHYPSTLYVTVRGLKVPDCIKPSYRSMMALQEEKGKPVHCERHHESSSVDTEPGLEESKEVIKWKRLPGQACRIPNKHLFSLNAGERGCFCLDFSHNGRILAAACASRDGYPIILYEIPSGRFMRELCGHLNIIYDLSWSKDDHYILTSSSDGTARIWKNEINNTNTFRVLPHPSFVYTAKFHPAVRELVVTGCYDSMIRIWKVEMREDSAILVRQFDVHKSFINSLCFDTEGHHMYSGDCTGVIVVWNTYVKINDLEHSVHHWTINKEIKETEFKGIPISYLEIHPNGKRLLIHTKDSTLRIMDLRILVARKFVGAANYREKIHSTLTPCGTFLFAGSEDGIVYVWNPETGEQVAMYSDLPFKSPIRDISYHPFENMVAFCAFGQNEPILLYIYDFHVAQQEAEMFKRYNGTFPLPGIHQSQDALCTCPKLPHQGSFQIDEFVHTESSSTKMQLVKQRLETVTEVIRSCAAKVNKNLSFTSPPAVSSQQSKLKQSNMLTAQEILHQFGFTQTGIISIERKPCNHQVDTAPTVVALYDYTANRSDELTIHRGDIIRVFFKDNEDWWYGSIGKGQEGYFPANHVASETLYQELPPEIKERSPPLSPEEKTKIEKSPAPQKQSINKNKSQDFRLGSESMTHSEMRKEQSHEDQGHIMDTRMRKNKQAGRKVTLIE
B2: Jouberin (Homo sapiens), Q8N157 (parent)
chain: B1 chain
partner: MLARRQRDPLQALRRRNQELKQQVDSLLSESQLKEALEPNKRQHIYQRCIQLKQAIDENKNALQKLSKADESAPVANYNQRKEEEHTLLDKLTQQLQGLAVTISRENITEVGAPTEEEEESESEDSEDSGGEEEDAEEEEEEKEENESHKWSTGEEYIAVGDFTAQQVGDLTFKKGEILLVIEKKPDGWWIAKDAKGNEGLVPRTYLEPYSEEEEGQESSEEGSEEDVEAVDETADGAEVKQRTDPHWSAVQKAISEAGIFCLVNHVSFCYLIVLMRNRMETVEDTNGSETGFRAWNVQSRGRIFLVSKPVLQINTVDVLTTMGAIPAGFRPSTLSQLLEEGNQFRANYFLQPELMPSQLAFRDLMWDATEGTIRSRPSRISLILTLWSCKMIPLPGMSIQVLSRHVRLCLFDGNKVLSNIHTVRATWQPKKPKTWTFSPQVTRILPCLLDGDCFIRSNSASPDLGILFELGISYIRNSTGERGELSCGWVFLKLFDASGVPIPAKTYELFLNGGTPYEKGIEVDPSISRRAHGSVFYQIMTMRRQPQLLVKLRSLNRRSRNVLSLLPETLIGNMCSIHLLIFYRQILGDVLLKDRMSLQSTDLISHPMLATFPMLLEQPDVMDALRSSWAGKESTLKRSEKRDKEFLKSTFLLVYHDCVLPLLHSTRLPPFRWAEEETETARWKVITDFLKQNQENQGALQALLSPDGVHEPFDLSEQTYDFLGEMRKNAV

Variants of: B1
Settings: with hap1_human HAP1, P54257
Sequence of hap1_human HAP1, P54257 (P54257 whole entry): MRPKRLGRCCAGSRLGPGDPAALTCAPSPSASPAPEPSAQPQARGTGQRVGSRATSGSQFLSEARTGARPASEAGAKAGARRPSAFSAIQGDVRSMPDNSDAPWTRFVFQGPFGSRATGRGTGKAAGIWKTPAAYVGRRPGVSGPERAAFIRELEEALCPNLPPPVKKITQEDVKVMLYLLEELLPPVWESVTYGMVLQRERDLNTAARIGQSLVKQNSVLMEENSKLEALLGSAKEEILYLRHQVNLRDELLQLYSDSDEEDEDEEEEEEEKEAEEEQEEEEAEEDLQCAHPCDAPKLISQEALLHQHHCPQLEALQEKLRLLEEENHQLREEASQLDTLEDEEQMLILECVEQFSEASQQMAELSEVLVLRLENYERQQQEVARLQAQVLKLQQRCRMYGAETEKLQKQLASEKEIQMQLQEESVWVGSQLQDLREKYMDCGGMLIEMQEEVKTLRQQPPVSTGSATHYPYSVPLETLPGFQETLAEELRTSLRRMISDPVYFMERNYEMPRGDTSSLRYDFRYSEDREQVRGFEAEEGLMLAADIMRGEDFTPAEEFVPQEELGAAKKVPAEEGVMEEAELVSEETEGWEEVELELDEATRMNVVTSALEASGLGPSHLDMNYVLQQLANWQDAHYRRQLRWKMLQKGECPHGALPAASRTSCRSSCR

Variant | effect of a mutation on the interaction
V443D | decreasing interaction

Variants of: B2
Settings: with nphp1_human NPHP1, O15259

Variant | effect of a mutation on the interaction
V443D | disrupting interaction

Reference: IntAct's records for PubMed 23532844
